Test results reported in patent US20050143285A1.
Where “and” joins values, the source holds several entries; their conditions need not be identical. Equal values may be shown once. Read-outs that look alike come from different tables or passages of the source.

Assays:
[1] = molecular target: T1, Lymnaea stagnalis acetylcholine binding protein (AChBP) (Lymnaea stagnalis), P58154; assay: stopped-flow fluorescence; Kd calculated from k-1/k1
[2] = molecular target: T1, Lymnaea stagnalis acetylcholine binding …; assay: stopped-flow, intrinsic tryptophan fluorescence quenching of Lymnaea AChBP
[3] = molecular target: T1, Lymnaea stagnalis acetylcholine binding …; assay: equilibrium titration, intrinsic tryptophan fluorescence of Lymnaea AChBP
[4] = molecular target: T1, Lymnaea stagnalis acetylcholine binding …
[5] = molecular target: T2, Aplysia californica acetylcholine binding protein (AChBP) (Aplysia californica)
T2 chain: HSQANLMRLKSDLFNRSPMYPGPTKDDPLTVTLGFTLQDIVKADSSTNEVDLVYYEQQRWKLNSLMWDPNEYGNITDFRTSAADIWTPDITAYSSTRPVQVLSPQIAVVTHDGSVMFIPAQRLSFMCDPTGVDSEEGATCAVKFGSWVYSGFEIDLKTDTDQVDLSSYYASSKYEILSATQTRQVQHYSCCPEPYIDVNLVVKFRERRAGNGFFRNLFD

[6] = molecular target: T1, Lymnaea stagnalis acetylcholine binding …; remark: listed apart in the source
[7] = molecular target: T1, Lymnaea stagnalis acetylcholine binding …; assay: ratio of Kd on Lymnaea AChBP to Kd on Aplysia AChBP
[8] = molecular target: T1, Lymnaea stagnalis acetylcholine binding …; remark: listed apart in the source
[9] = molecular target: T1, Lymnaea stagnalis acetylcholine binding …; assay: stopped-flow spectrofluorimetry, excitation 280 nm, emission above 305 nm

T1 sequence (P58154 20-229): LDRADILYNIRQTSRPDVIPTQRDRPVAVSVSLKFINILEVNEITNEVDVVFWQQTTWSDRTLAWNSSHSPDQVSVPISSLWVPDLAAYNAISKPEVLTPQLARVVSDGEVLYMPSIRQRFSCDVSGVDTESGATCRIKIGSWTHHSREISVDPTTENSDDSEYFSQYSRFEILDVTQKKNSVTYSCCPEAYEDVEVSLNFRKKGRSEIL

B1: α-Cobratoxin, P01391 1-71 (peptide)
chain: IRCFITPDITSKDCPNGHVCYTKTWCDAFCSIRGKRVDLGCAATCPTVKTGVDIQCCSTDNCNPFPTRKRP
modifications: not checked
Work on B1 yielded a Kd [1] of 3.2 nM, a koff [2] of 0.011 s⁻¹ and a kon [2] of 3.3e+06 M⁻¹ s⁻¹.

B2: α-bungarotoxin, P60615 22-95 (peptide)
chain: IVCHTTATSPISAVTCPPGENLCYRKMWCDAFCSSRGKVVELGCAATCPSKKPYEEVTCCSTDKCNPHPKQRPG
modifications: not checked
For B2, the percent quenching of the unliganded receptor fluorescence [3] was 15% and 20%, the Kd [1] was 1.8 nM and the koff [4] was 0.001 s⁻¹. The fold lower affinity than for L-AChBP [5] was 100 fold, the Kd [6] was 1.8 nM and the Kd Ratio L/A [7] was 0.0071. For the same binder, the fold slower rate of association than epibatidine [8] was 200 fold, the k2 (unimolecular step of association) [8] was 0.34 s⁻¹ and the kon [9] was 900000 M⁻¹ s⁻¹. For the same binder, the koff [2] was 0.0017 s⁻¹ and the kon [2] was 970000 M⁻¹ s⁻¹.

GGKPDLRPCHPPCHYIPRPKPR (modifications not checked) [Waglerin-1, P24335 3-24] gave a Kd [1] of 6500 nM, a koff [2] of 31 s⁻¹ and a kon [2] of 4.8e+06 M⁻¹ s⁻¹.
